Data on seven molecules can be found in patent US20230407373A1 (priority 2020, published 2023).

Sequences and labels used below:
B1: RBM3: host protein, UniProt P98179 (protein, UniProt P98179 1-157, looked up)
RNA-binding protein 3: MSSEEGKLFVGGLNFNTDEQALEDHFSSFGPISEVVVVKDRETQRSRGFGFITFTNPEHASVAMRAMNGESLDGRQIRVDHAGKSARGTRGGGFGAHGRGRSYSRGGGDQGYGSGRYYDSRPGGYGYGYGRSRDYNGRNQGGYDRYSGGNYRDNYDN
B2: SRSF3 (protein, UniProt P84103 1-164, looked up)
Serine/arginine-rich splicing …: MHRDSCPLDCKVYVGNLGNNGNKTELERAFGYYGPLRSVWVARNPPGFAFVEFEDPRDAADAVRELDGRTLCGCRVRVELSNGEKRSRNRGPPPSWGRRPRDDYRRRSPPPRRRSPRRRSFSRSRSRSLSRDRRRERSLSRERNHKPSRSFSRSRSRSRSNERK
B3: PURA (protein, UniProt Q00577 2-322, looked up)
Transcriptional activator …: ADRDSGSEQGGAALGSGGSLGHPGSGSGSGGGGGGGGGGGGSGGGGGGAPGGLQHETQELASKRVDIQNKRFYLDVKQNAKGRFLKIAEVGAGGNKSRLTLSMSVAVEFRDYLGDFIEHYAQLGPSQPPDLAQAQDEPRRALKSEFLVRENRKYYMDLKENQRGRFLRIRQTVNRGPGLGSTQGQTIALPAQGLIEFRDALAKLIDDYGVEEEPAELPEGTSLTVDNKRFFFDVGSNKYGVFMRVSEVKPTYRNSITVPYKVWAKFGHTFCKYSEEMKKIQEKQREKRAACEQLHQQQQQQQEETAAATLLLQGEEEGEED
B4: HNRNPDL (protein, UniProt O14979 1-420, looked up)
Heterogeneous nuclear …: MEVPPRLSHVPPPLFPSAPATLASRSLSHWRPRPPRQLAPLLPSLAPSSARQGARRAQRHVTAQQPSRLAGGAAIKGGRRRRPDLFRRHFKSSSIQRSAAAAAATRTARQHPPADSSVTMEDMNEYSNIEEFAEGSKINASKNQQDDGKMFIGGLSWDTSKKDLTEYLSRFGEVVDCTIKTDPVTGRSRGFGFVLFKDAASVDKVLELKEHKLDGKLIDPKRAKALKGKEPPKKVFVGGLSPDTSEEQIKEYFGAFGEIENIELPMDTKTNERRGFCFITYTDEEPVKKLLESRYHQIGSGKCEIKVAQPKEVYRQQQQQQKGGRGAAAGGRGGTRGRGRGQGQNWNQGFNNYYDQGYGNYNSAYGGDQNYSGYGGYDYTGYNYGNYGYGQGYADYSGQQSTYGKASRGGGNHQNNYQPY
B5: HNRNPH3 (protein, UniProt P31942 1-346, looked up)
Heterogeneous nuclear …: MDWVMKHNGPNDASDGTVRLRGLPFGCSKEEIVQFFQGLEIVPNGITLTMDYQGRSTGEAFVQFASKEIAENALGKHKERIGHRYIEIFRSSRSEIKGFYDPPRRLLGQRPGPYDRPIGGRGGYYGAGRGSMYDRMRRGGDGYDGGYGGFDDYGGYNNYGYGNDGFDDRMRDGRGMGGHGYGGAGDASSGFHGGHFVHMRGLPFRATENDIANFFSPLNPIRVHIDIGADGRATGEADVEFVTHEDAVAAMSKDKNNMQHRYIELFLNSTPGGGSGMGGSGMGGYGRDGMDNQGGYGSVGRMGMGNNYSGGYGTPDGLGGYGRGGGGSGGYYGQGGMSGGGWRGMY
B6: DDX5: host protein, UniProt P17844 (protein, UniProt P17844 1-614, looked up)
Probable ATP-dependent RNA …: MSGYSSDRDRGRDRGFGAPRFGGSRAGPLSGKKFGNPGEKLVKKKWNLDELPKFEKNFYQEHPDLARRTAQEVETYRRSKEITVRGHNCPKPVLNFYEANFPANVMDVIARQNFTEPTAIQAQGWPVALSGLDMVGVAQTGSGKTLSYLLPAIVHINHQPFLERGDGPICLVLAPTRELAQQVQQVAAEYCRACRLKSTCIYGGAPKGPQIRDLERGVEICIATPGRLIDFLECGKTNLRRTTYLVLDEADRMLDMGFEPQIRKIVDQIRPDRQTLMWSATWPKEVRQLAEDFLKDYIHINIGALELSANHNILQIVDVCHDVEKDEKLIRLMEEIMSEKENKTIVFVETKRRCDELTRKMRRDGWPAMGIHGDKSQQERDWVLNEFKHGKAPILIATDVASRGLDVEDVKFVINYDYPNSSEDYIHRIGRTARSTKTGTAYTFFTPNNIKQVSDLISVLREANQAINPKLLQLVEDRGSGRSRGRGGMKDDRRDRYSAGKRGGFNTFRDRENYDRGYSSLLKRDFGAKTQNGVYSAANYTNGSFGSNFVSAGIQTSFRTGNPTGTYQNGYDSTQQYGSNVPNMHNGMNQQAYAYPATAAAPMIGYPMPTGYSQ
B7: FUBP1: host protein, UniProt Q96AE4 (protein, UniProt Q96AE4 2-644, looked up)
Far upstream element-binding …: ADYSTVPPPSSGSAGGGGGGGGGGGVNDAFKDALQRARQIAAKIGGDAGTSLNSNDYGYGGQKRPLEDGDQPDAKKVAPQNDSFGTQLPPMHQQQSRSVMTEEYKVPDGMVGFIIGRGGEQISRIQQESGCKIQIAPDSGGLPERSCMLTGTPESVQSAKRLLDQIVEKGRPAPGFHHGDGPGNAVQEIMIPASKAGLVIGKGGETIKQLQERAGVKMVMIQDGPQNTGADKPLRITGDPYKVQQAKEMVLELIRDQGGFREVRNEYGSRIGGNEGIDVPIPRFAVGIVIGRNGEMIKKIQNDAGVRIQFKPDDGTTPERIAQITGPPDRCQHAAEIITDLLRSVQAGNPGGPGPGGRGRGRGQGNWNMGPPGGLQEFNFIVPTGKTGLIIGKGGETIKSISQQSGARIELQRNPPPNADPNMKLFTIRGTPQQIDYARQLIEEKIGGPVNPLGPPVPHGPHGVPGPHGPPGPPGPGTPMGPYNPAPYNPGPPGPAPHGPPAPYAPQGWGNAYPHWQQQAPPDPAKAGTDPNSAAWAAYYAHYYQQQAQPPPAAPAGAPTTTQTNGQGDQQNPAPAGQVDYTKAWEEYYKKMGQAVPAPTGAPPGGQPDYSAAWAEYYRQQAAYYAQTSPQGMPQHPPAPQGQ

One test concerns SARS-CoV-2 gRNA. Format: binding. The following applies: […]; LC-MS/MS; Probe I sample (first 199 lines of Table 2).
Consider B1, for which the “target (unweighted spectral count of the protein in the RNP capture)” value was determined as 15.
Still for that read-out and setting: with B2 the figure was 16.
The same measure, in the same setting: under B3 stands 15; under B4, 25.
Turning to B5, the “target (unweighted spectral count of the protein in the RNP capture)” value worked out at 23.
In the case of B6, the “target (unweighted spectral count of the protein in the RNP capture)” value was 32.
Turning to B7, the “target (unweighted spectral count of the protein in the RNP capture)” value came out at 32.

A further test deals with gRNA of HCoV-OC43. Type of test: binding.
Conditions: not given
With B2, the “background (spectral count, no-probe control)” value stood at 3 and the “target (spectral count, OC43 Probe I RNP capture)” value came out at 14.

The test is the same for the next values; noted with them: type g_36_m; HCoV-OC43-infected HCT-8 cells, 36 hpi, Probe I.
As for B1, the “target (spectral count)” value stood at 14.
For the molecule B6, the “target (spectral count)” value is 30.
As to B7, the “target (spectral count)” value is listed as 15.

The test is the same for the next values; noted with them: type g_36_m; uninfected-probe control, 36 hpi, Probe I.
As for B1, the “background (spectral count)” value was 2.
Turning to B6, the “background (spectral count)” value turned out to be 3.
With B7, the “background (spectral count)” value came to 2.

Staying with this test, now noted: type n_48_v: 48 hours post-infection, infected cells, OC43 Probe I; unweighted spectral count.
In the case of B1, the “target (spectral count, OC43 Probe I RNP capture)” value turned out to be 17.
Consider B3, for which the “target (spectral count, OC43 Probe I RNP capture)” value worked out at 7.
The same measure, in the same setting: under B4 stands 17; under B5, 16; under B6, 30.

The same test, now with this note: type n_48_v: 48 hours post-infection, no-probe control on infected cells.
For B1, the “background (spectral count, no-probe control)” value is 1.
The same measure, in the same setting: under B3 stands 1.
Same read-out and setting: with B4 the figure was 3.
In the case of B5, the “background (spectral count, no-probe control)” value amounted to 2.
As for B6, the “background (spectral count, no-probe control)” value is 3.
Regarding B7, the “background (spectral count, no-probe control)” value is 2.

For a further test, the system named is HCoV-OC43 gRNA and sgRNA. Type of test: binding.
Conditions: not given
Consider B2, for which the “background (unweighted spectral count, no-probe control)” value was 3; the “target (unweighted spectral count)” value is on record as 6; the “target (unweighted spectral count, OC43 Probe II capture)” value turned out to be 18; the “target (unweighted spectral count, OC43 Probe II)” value is listed as 16.

Staying with this test, now noted: 24 hpi; type n_24_v; tested against no-probe control; FDR<10%.
With B1, the “target (unweighted spectral count, OC43 Probe II capture)” value stood at 6.

The same test, now with this note: 36 hpi; type n_36_v; tested against no-probe control; FDR<10%.
On to B1, for which the “target (unweighted spectral count, OC43 Probe II capture)” value was 10.
Same read-out and setting: with B3 the figure was 5; with B5, 18; with B7, 17.

The same test, now with this note: OC43 Probe II, 12 hpi (type n_12_v), infected cells; tested against no-probe control.
With B4, the “target (unweighted spectral count)” value came out at 6.
On the same count and under the same terms, with B5 the figure was 6; with B6, 8; with B7, 6.

The same test, now with this note: OC43 Probe II, 24 hpi (type n_24_v), infected cells; tested against no-probe control.
As to B4, the “target (unweighted spectral count)” value was determined as 9.
Still for that read-out and setting: with B5 the figure was 15; with B7, 12.

The same test, now with this note: type n_48_v; 48 hpi; OC43 Probe II capture on infected cells.
In the case of B3, the “target (unweighted spectral count, OC43 Probe II)” value is listed as 12.
B4: the “target (unweighted spectral count, OC43 Probe II)” value came to 18.
Same read-out and setting: with B5 the figure was 21; with B6, 31; with B7, 21.

Staying with this test, now noted: type n_48_v; 48 hpi; no-probe control on infected cells.
For B3, the “background (unweighted spectral count, no-probe control)” value is given as 1.
As to B4, the “background (unweighted spectral count, no-probe control)” value worked out at 3.
The same measure, in the same setting: under B5 stands 2.
On the same count and under the same terms, with B6 the figure was 3; with B7, 2.

Staying with this test, now noted: type s_36_m; HCoV-OC43-infected HCT-8 cells, 36 hpi, Probe II.
Take B6: the “target (spectral count)” value is given as 33.
For B7, the “target (spectral count)” value was 17.

The test is the same for the next values; noted with them: type s_36_m; uninfected-probe control, 36 hpi, Probe II.
In the case of B6, the “background (spectral count)” value is 3.
On to B7, for which the “background (spectral count)” value was 1.

Another test has as its system SARS-CoV-2 gRNA and sgRNAs. Format: binding. The following applies: Probe II capture; […]; LC-MS/MS LFQ.
Consider B1, for which the “target (unweighted spectral count in RNP capture)” value was 21.
With B2, the “target (unweighted spectral count in RNP capture)” value was found to be 20.
The same measure, in the same setting: under B3 stands 19; under B4, 25.
On the same count and under the same terms, under B5 stands 17; under B6, 24; under B7, 21.

Still in this test, the particulars now being: no-probe control pull-down, used as background for Probe II.
Turning to B1, the “background (unweighted spectral count in control)” value worked out at 1.
Turning to B2, the “background (unweighted spectral count in control)” value is reported as 1.
As for B3, the “background (unweighted spectral count in control)” value amounted to 1.
In the case of B4, the “background (unweighted spectral count in control)” value is given as 1.
Consider B5, for which the “background (unweighted spectral count in control)” value was 1.
B6: the “background (unweighted spectral count in control)” value is on record as 1.
With B7, the “background (unweighted spectral count in control)” value came to 1.
